Assay results published in article PMC7195491.

T1: DIP-γ (Dpr Interacting Protein gamma), extracellular region, Q9VAR6
T1 chain: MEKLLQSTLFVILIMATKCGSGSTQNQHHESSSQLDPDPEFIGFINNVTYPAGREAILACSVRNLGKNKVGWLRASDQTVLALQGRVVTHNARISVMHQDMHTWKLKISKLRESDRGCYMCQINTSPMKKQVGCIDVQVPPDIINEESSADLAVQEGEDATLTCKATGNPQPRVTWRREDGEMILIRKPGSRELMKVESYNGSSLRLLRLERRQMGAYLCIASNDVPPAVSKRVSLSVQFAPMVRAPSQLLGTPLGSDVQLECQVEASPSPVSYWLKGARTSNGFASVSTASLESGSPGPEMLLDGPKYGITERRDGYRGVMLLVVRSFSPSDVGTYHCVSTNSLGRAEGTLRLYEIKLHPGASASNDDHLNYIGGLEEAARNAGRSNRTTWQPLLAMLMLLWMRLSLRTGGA

T2: DIP-α (Dpr Interacting Protein alpha), extracellular region, Q9W4R3
T2 chain: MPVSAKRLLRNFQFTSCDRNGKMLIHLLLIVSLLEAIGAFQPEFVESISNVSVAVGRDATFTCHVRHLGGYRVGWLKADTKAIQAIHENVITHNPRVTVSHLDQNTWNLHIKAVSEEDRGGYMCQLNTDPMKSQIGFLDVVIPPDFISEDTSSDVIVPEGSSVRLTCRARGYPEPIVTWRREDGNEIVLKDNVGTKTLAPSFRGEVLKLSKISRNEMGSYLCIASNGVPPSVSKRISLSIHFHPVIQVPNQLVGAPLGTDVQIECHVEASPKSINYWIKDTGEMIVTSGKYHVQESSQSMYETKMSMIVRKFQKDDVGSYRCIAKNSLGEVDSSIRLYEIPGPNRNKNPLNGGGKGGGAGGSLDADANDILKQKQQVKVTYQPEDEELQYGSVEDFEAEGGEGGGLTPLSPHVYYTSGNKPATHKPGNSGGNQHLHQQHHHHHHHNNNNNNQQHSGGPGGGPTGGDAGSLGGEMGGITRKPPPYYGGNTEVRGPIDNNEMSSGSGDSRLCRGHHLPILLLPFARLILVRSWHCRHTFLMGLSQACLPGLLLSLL

T3: Dpr11 (Defective proboscis extension response 11), extracellular region, Q8MRE6
T3 chain: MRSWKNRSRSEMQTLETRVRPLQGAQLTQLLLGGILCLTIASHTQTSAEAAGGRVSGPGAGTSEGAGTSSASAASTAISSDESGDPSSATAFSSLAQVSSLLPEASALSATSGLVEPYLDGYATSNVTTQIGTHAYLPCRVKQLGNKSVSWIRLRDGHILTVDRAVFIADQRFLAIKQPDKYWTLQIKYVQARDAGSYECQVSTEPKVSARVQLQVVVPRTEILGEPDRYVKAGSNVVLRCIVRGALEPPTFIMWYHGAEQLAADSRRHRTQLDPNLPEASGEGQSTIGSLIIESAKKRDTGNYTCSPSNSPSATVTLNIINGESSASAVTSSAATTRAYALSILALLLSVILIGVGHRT


Assays:
Assay in all cases: SPR
[1] = target: T1, DIP-γ (Dpr Interacting Protein gamma), …; conditions: chain shown with the change; 25 °C; 10 mM Tris-HCl, pH 7.2, 150 mM NaCl, 1 mM EDTA, 1 mg mL−1 BSA, 0.01% (v/v) Tween-20; analyte 81 to 0.012 μM, three-fold dilution series
[2] = target: T2, DIP-α (Dpr Interacting Protein alpha), …; conditions: chain shown with the change; 25 °C; 10 mM Tris-HCl, pH 7.2, 150 mM NaCl, 1 mM EDTA, 1 mg mL−1 BSA, 0.01% (v/v) Tween-20; analyte 81 to 0.012 μM, three-fold dilution series; parent: 0.0 kcal/mol
[3] = target: T3, Dpr11 (Defective proboscis extension …); conditions: chain shown with the change; 25 °C; 10 mM Tris-HCl, pH 7.2, 150 mM NaCl, 1 mM EDTA, 1 mg mL−1 BSA, 0.01% (v/v) Tween-20; analyte 81 to 0.012 μM, three-fold dilution series

Binder	ddG [1] [kcal/mol]	other results
Dpr11 (Defective proboscis extension response 11), extracellular region, Q8MRE6 K207V (protein) MRSWKNRSRSEMQTLETRVRPLQGAQLTQLLLGGILCLTIASHTQTSAEAAGGRVSGPGAGTSEGAGTSSASAASTAISSDESGDPSSATAFSSLAQVSSLLPEASALSATSGLVEPYLDGYATSNVTTQIGTHAYLPCRVKQLGNKSVSWIRLRDGHILTVDRAVFIADQRFLAIKQPDKYWTLQIKYVQARDAGSYECQVSTEPVVSARVQLQVVVPRTEILGEPDRYVKAGSNVVLRCIVRGALEPPTFIMWYHGAEQLAADSRRHRTQLDPNLPEASGEGQSTIGSLIIESAKKRDTGNYTCSPSNSPSATVTLNIINGESSASAVTSSAATTRAYALSILALLLSVILIGVGHRT	0.6	
Dpr11 (Defective proboscis extension response 11), extracellular region, Q8MRE6 E205Q; K207V (protein) MRSWKNRSRSEMQTLETRVRPLQGAQLTQLLLGGILCLTIASHTQTSAEAAGGRVSGPGAGTSEGAGTSSASAASTAISSDESGDPSSATAFSSLAQVSSLLPEASALSATSGLVEPYLDGYATSNVTTQIGTHAYLPCRVKQLGNKSVSWIRLRDGHILTVDRAVFIADQRFLAIKQPDKYWTLQIKYVQARDAGSYECQVSTQPVVSARVQLQVVVPRTEILGEPDRYVKAGSNVVLRCIVRGALEPPTFIMWYHGAEQLAADSRRHRTQLDPNLPEASGEGQSTIGSLIIESAKKRDTGNYTCSPSNSPSATVTLNIINGESSASAVTSSAATTRAYALSILALLLSVILIGVGHRT	1.7	
Dpr11 (Defective proboscis extension response 11), extracellular region, Q8MRE6 K207V; E205Q; G157L (protein) MRSWKNRSRSEMQTLETRVRPLQGAQLTQLLLGGILCLTIASHTQTSAEAAGGRVSGPGAGTSEGAGTSSASAASTAISSDESGDPSSATAFSSLAQVSSLLPEASALSATSGLVEPYLDGYATSNVTTQIGTHAYLPCRVKQLGNKSVSWIRLRDLHILTVDRAVFIADQRFLAIKQPDKYWTLQIKYVQARDAGSYECQVSTQPVVSARVQLQVVVPRTEILGEPDRYVKAGSNVVLRCIVRGALEPPTFIMWYHGAEQLAADSRRHRTQLDPNLPEASGEGQSTIGSLIIESAKKRDTGNYTCSPSNSPSATVTLNIINGESSASAVTSSAATTRAYALSILALLLSVILIGVGHRT		ddG [2]: < -2 kcal/mol
DIP-γ (Dpr Interacting Protein gamma), extracellular region, Q9VAR6 D77T (protein) MEKLLQSTLFVILIMATKCGSGSTQNQHHESSSQLDPDPEFIGFINNVTYPAGREAILACSVRNLGKNKVGWLRASTQTVLALQGRVVTHNARISVMHQDMHTWKLKISKLRESDRGCYMCQINTSPMKKQVGCIDVQVPPDIINEESSADLAVQEGEDATLTCKATGNPQPRVTWRREDGEMILIRKPGSRELMKVESYNGSSLRLLRLERRQMGAYLCIASNDVPPAVSKRVSLSVQFAPMVRAPSQLLGTPLGSDVQLECQVEASPSPVSYWLKGARTSNGFASVSTASLESGSPGPEMLLDGPKYGITERRDGYRGVMLLVVRSFSPSDVGTYHCVSTNSLGRAEGTLRLYEIKLHPGASASNDDHLNYIGGLEEAARNAGRSNRTTWQPLLAMLMLLWMRLSLRTGGA		ddG [3]: 0.9 kcal/mol
